Target: the molecule itself
Assay: FTIR; 6 mM peptide in water, pH adjusted from 7.2 to 4.2; amide I band 1625–1630 cm^−1; bio-ATR cell

B1: APR^ex-4 hexapeptide LFIEWL (aggregation-prone region of exendin-4) (peptide)
peptide: LFIEWL
notes: aggregation-prone hexapeptide segment of the non-mammalian exendin-4 (also of exendin-3); free termini; also called LFIEWL (exendin-4); source: synthetic peptide (flow solid-phase synthesis, Fmoc/tBu; RP-HPLC purified)
binding result: binds

From PMC10394066, “Polymorphic amyloid nanostructures of hormone peptides involved in glucose homeostasis display reversible amyloid formation” (Nature Communications, 2023)
